The test has as its target T1, SiRHP (sulfite reductase hemoprotein, full length, hydrogenated) (Escherichia coli, UniProt P17846 1-570).
T1 sequence (looked up): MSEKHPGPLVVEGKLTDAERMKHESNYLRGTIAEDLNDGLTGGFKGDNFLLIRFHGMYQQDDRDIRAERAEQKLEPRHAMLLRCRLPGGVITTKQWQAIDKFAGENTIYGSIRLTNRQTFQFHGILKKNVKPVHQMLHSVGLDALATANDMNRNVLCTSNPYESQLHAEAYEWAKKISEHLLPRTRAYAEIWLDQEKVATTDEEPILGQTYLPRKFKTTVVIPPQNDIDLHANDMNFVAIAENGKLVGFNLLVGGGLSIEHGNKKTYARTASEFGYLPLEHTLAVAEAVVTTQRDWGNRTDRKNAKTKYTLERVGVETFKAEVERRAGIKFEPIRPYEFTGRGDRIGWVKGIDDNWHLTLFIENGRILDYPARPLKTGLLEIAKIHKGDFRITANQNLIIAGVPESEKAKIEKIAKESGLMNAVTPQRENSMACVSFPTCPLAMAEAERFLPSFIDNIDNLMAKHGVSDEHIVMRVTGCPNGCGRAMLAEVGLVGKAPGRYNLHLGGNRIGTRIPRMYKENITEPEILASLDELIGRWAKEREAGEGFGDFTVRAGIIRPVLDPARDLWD
The experiment in a line: AUC.

B1: SiRFP-60 (monomeric 60 kDa sulfite reductase flavoprotein, 52 N-terminal amino acids removed) (domain or fragment, Escherichia coli, UniProt P38038 53-599, looked up)
chain: ATPAPAAEMPGITIISASQTGNARRVAEALRDDLLAAKLNVKLVNAGDYKFKQIASEKLLIVVTSTQGEGEPPEEAVALHKFLFSKKAPKLENTAFAVFSLGDSSYEFFCQSGKDFDSKLAELGGERLLDRVDADVEYQAAASEWRARVVDALKSRAPVAAPSQSVATGAVNEIHTSPYSKDAPLVASLSVNQKITGRNSEKDVRHIEIDLGDSGMRYQPGDALGVWYQNDPALVKELVELLWLKGDEPVTVEGKTLPLNEALQWHFELTVNTANIVENYATLTRSETLLPLVGDKAKLQHYAATTPIVDMVRFSPAQLDAEALINLLRPLTPRLYSIASSQAEVENEVHVTVGVVRYDVEGRARAGGASSFLADRVEEEGEVRVFIEHNDNFRLPANPETPVIMIGPGTGIAPFRAFMQQRAADEAPGKNWLFFGNPHFTEDFLYQVEWQRYVKDGVLTRIDLAWSRDQKEKVYVQDKLREQGAELWRWINDGAHIYVCGDANRMAKDVEQALLEVIAEFGGMDTEAADEFLSELRVERRYQRDVY
Consider B1, for which the binding result was “binds”.
